The results in this text go back to article PMC535902.

A word on the stoichiometry N: it is the number of molecules, sites or subunits per partner or assembly.

For test [1], the target named is Rhodobacter capsulatus porphobilinogen synthase (Rhodobacter capsulatus) (UniProt P42504). The experiment in a line: SEC; Superose 6 (10 x 300 mm), 0.5 ml/min, 100 mM BTP pH 8.6, 100 uL of a 200 ug/ml solution; column calibrated with standards. A general note: In gel filtration, larger molecules generally elute earlier.
Test [2] shares this target. Description: AUC; sedimentation equilibrium, 4 °C, 10 mM Tris-HCl pH 7.7 with 0.1 mM DTT or 1 mM βME, 12.3 uM in monomer (440 ug/ml), 8,000-14,000 rpm, global fit to a single species model.
For test [3] the target is unchanged.

With “Rhodobacter capsulatus porphobilinogen synthase (from UniProt P42504 1-332) (enzyme)”, the stoichiometry N in test [1] and in test [2] was 6 throughout. This substance also returned a specific activity of the enzyme against protein concentration (0.01 to 40 ug/ml; from ~150 at the lowest to ~450 umol h^-1 mg^-1 at the highest) (μmol h^-1 mg^-1) in test [3] of 450.
